Test results from patent US20120122783A1 (INDIANA UNIVERSITY RESEARCH AND TECHOLOGY, published 2012).
Read-outs that look alike come from different tables or passages of the source. Square brackets hold non-standard residues; d marks the D form. Ends that are not written are not given here. Abu(4-SO3H) = N[C@@H](CCS(=O)(=O)O)C(=O)O; PhLac = O=C(O)[C@@H](O)Cc1ccccc1; PLA = not defined here

Experiments:
human GLP-1 receptor = human GLP-1 receptor (human, UniProt P43220 24-463); test: cell-based or functional assay
human glucagon receptor [1] = biological target: T1, human glucagon receptor (human, UniProt P47871 26-477); test: cell-based or functional assay
human glucagon receptor [2] = biological target: T1, human glucagon receptor; test: SPA competition vs 125I-glucagon, receptor membranes
human glucagon receptor [3] = biological target: T1, human glucagon receptor; test: cell-based or functional assay; remark: listed apart in the source
human glucagon receptor [4] = biological target: T1, human glucagon receptor; test: cell-based or functional assay; remark: listed apart in the source
human glucagon receptor [5] = biological target: T1, human glucagon receptor; test: cell-based or functional assay; remark: listed apart in the source
human glucagon receptor [6] = biological target: T1, human glucagon receptor; test: cell-based or functional assay; remark: listed apart in the source
human glucagon receptor [7] = biological target: T1, human glucagon receptor; test: cell-based or functional assay; remark: listed apart in the source
human glucagon receptor [8] = biological target: T1, human glucagon receptor; test: cell-based or functional assay; remark: listed apart in the source
human glucagon receptor [9] = biological target: T1, human glucagon receptor; test: cell-based or functional assay; remark: listed apart in the source

T1 sequence (P47871 26-477): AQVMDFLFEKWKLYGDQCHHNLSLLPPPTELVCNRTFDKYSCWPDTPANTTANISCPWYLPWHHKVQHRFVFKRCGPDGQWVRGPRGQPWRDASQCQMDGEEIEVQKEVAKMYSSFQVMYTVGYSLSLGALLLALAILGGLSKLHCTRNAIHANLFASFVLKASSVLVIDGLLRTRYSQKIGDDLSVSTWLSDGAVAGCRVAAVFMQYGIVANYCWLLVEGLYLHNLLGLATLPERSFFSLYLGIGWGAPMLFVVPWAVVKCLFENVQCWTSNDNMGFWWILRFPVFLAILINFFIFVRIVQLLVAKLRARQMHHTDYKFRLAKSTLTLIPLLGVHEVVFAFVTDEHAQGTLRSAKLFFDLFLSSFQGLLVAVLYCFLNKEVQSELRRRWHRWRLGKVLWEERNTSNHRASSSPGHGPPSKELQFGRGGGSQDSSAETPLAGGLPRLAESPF
human GLP-1 receptor, sequence (P43220 24-463): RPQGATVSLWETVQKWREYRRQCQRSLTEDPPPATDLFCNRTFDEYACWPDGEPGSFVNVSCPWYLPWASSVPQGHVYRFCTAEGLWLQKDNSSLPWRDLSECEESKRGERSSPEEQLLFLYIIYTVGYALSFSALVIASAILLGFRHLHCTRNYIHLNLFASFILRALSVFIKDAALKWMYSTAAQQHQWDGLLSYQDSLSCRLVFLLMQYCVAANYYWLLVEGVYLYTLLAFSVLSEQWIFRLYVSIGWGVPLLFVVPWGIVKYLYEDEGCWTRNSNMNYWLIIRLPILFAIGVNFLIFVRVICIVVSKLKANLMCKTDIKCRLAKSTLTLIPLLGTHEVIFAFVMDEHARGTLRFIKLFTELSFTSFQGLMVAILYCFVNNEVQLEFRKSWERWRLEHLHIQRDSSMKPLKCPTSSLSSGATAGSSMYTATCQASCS

Molecule: Oxyntomodulin KRNR (peptide)
- cAMP Induction EC50 (human GLP-1 receptor): 3.21 nM
- cAMP Induction EC50 (human glucagon receptor [1]): 2.77 nM

Molecule: [desHis^1, desPhe^6] Glucagon-NH2 (peptide)
- cAMP Induction EC50 (human glucagon receptor [1]): 1180 nM
- IC50 (human glucagon receptor [2]): 130 nM

B1: [hCys^9(SO3H)]Glucagon(aa4-29)-NH2 (peptide)
peptide: GTFTS[Abu(4-SO3H)]YSKYLDSRRAQDFVQWLMNT-NH2
modifications: N-terminus assumed
SMILES: CSCC[C@H](NC(=O)[C@H](CC(C)C)NC(=O)[C@H](Cc1c[nH]c2ccccc12)NC(=O)[C@H](CCC(N)=O)NC(=O)[C@@H](NC(=O)[C@H](Cc1ccccc1)NC(=O)[C@H](CC(=O)O)NC(=O)[C@H](CCC(N)=O)NC(=O)[C@H](C)NC(=O)[C@H](CCCNC(=N)N)NC(=O)[C@H](CCCNC(=N)N)NC(=O)[C@H](CO)NC(=O)[C@H](CC(=O)O)NC(=O)[C@H](CC(C)C)NC(=O)[C@H](Cc1ccc(O)cc1)NC(=O)[C@H](CCCCN)NC(=O)[C@H](CO)NC(=O)[C@H](Cc1ccc(O)cc1)NC(=O)[C@H](CCS(=O)(=O)O)NC(=O)[C@H](CO)NC(=O)[C@@H](NC(=O)[C@H](Cc1ccccc1)NC(=O)[C@@H](NC(=O)CN)[C@@H](C)O)[C@@H](C)O)C(C)C)C(=O)N[C@@H](CC(N)=O)C(=O)N[C@H](C(N)=O)[C@@H](C)O
- cAMP IC50 (human glucagon receptor [3]): 68.4 nM

B2: [PLA6, E9]Glucagon(aa6-29+CEX)-NH2 (peptide)
peptide: [PLA]TSEYSKYLDSRRAQDFVQWLMNTGPSSGAPPPS-NH2
modifications: reading uncertain
- IC50 (nM) (cAMP, inhibit Glucagon) 0.1 nM or 0.2 nM (human glucagon receptor [4]): 24.8 nM

B3: [PLA6, E9]Glucagon(aa6-29)-NH2 (peptide)
peptide: [PhLac]TSEYSKYLDSRRAQDFVQWLMNT-NH2
- Glucagon antagonism IC50(nM, inhibit 0.5 nM G) (human glucagon receptor [5]): 23.8 nM
- IC50 (nM) (cAMP, inhibit 0.8 mM Glucagon) (human glucagon receptor [6]): 64.8 nM

B4: [PLA6, hCys(SO3)9]Glucagon(aa6-29)-NH2 (peptide)
peptide: [PhLac]TS[Abu(4-SO3H)]YSKYLDSRRAQDFVQWLMNT-NH2
- IC50 (nM) (cAMP, inhibit Glucagon) 0.1 nM or 0.2 nM (human glucagon receptor [4]): 40.2 nM

B5: [Glu^9]Glucagon(aa6-29)-NH2 (peptide)
peptide: FTSEYSKYLDSRRAQDFVQWLMNT-NH2
- cAMP Inhibition IC50 (human glucagon receptor [7]): 97 nM
- cAMP (I/A)50, inhibition index (human glucagon receptor [8]): 486 ratio
- cAMP IC50 (human glucagon receptor [9]): 97.2 nM

B6: [PLA6, D9, D28]Glucagon(aa6-29)-NH2 (peptide)
peptide: FTSDYSKYLDSRRAQDFVQWLMDT
modifications: N-terminal residue is phenyl lactic acid (PLA) in place of Phe 6; C-terminal amide
- Glucagon antagonism IC50(nM, inhibit 0.5 nM G) (human glucagon receptor [5]): 9.03 nM
- IC50 (nM) (cAMP, inhibit Glucagon) 0.1 nM or 0.2 nM (human glucagon receptor [4]): 1.32 nM

B7: [PLA^5, E^9]Glucagon(aa5-29)-NH2 (peptide)
peptide: [PhLac]FTSEYSKYLDSRRAQDFVQWLMNT-NH2
modifications: N-terminus assumed
SMILES: CSCC[C@H](NC(=O)[C@H](CC(C)C)NC(=O)[C@H](Cc1c[nH]c2ccccc12)NC(=O)[C@H](CCC(N)=O)NC(=O)[C@@H](NC(=O)[C@H](Cc1ccccc1)NC(=O)[C@H](CC(=O)O)NC(=O)[C@H](CCC(N)=O)NC(=O)[C@H](C)NC(=O)[C@H](CCCNC(=N)N)NC(=O)[C@H](CCCNC(=N)N)NC(=O)[C@H](CO)NC(=O)[C@H](CC(=O)O)NC(=O)[C@H](CC(C)C)NC(=O)[C@H](Cc1ccc(O)cc1)NC(=O)[C@H](CCCCN)NC(=O)[C@H](CO)NC(=O)[C@H](Cc1ccc(O)cc1)NC(=O)[C@H](CCC(=O)O)NC(=O)[C@H](CO)NC(=O)[C@@H](NC(=O)[C@H](Cc1ccccc1)NC(=O)[C@@H](O)Cc1ccccc1)[C@@H](C)O)C(C)C)C(=O)N[C@@H](CC(N)=O)C(=O)N[C@H](C(N)=O)[C@@H](C)O
- IC50 (nM) (cAMP, inhibit 0.8 mM Glucagon) (human glucagon receptor [6]): 328 nM

B8: [hCys^9(SO3H)]Glucagon(aa5-29)-NH2 (peptide)
peptide: TFTS[Abu(4-SO3H)]YSKYLDSRRAQDFVQWLMNT-NH2
modifications: N-terminus assumed
SMILES: CSCC[C@H](NC(=O)[C@H](CC(C)C)NC(=O)[C@H](Cc1c[nH]c2ccccc12)NC(=O)[C@H](CCC(N)=O)NC(=O)[C@@H](NC(=O)[C@H](Cc1ccccc1)NC(=O)[C@H](CC(=O)O)NC(=O)[C@H](CCC(N)=O)NC(=O)[C@H](C)NC(=O)[C@H](CCCNC(=N)N)NC(=O)[C@H](CCCNC(=N)N)NC(=O)[C@H](CO)NC(=O)[C@H](CC(=O)O)NC(=O)[C@H](CC(C)C)NC(=O)[C@H](Cc1ccc(O)cc1)NC(=O)[C@H](CCCCN)NC(=O)[C@H](CO)NC(=O)[C@H](Cc1ccc(O)cc1)NC(=O)[C@H](CCS(=O)(=O)O)NC(=O)[C@H](CO)NC(=O)[C@@H](NC(=O)[C@H](Cc1ccccc1)NC(=O)[C@@H](N)[C@@H](C)O)[C@@H](C)O)C(C)C)C(=O)N[C@@H](CC(N)=O)C(=O)N[C@H](C(N)=O)[C@@H](C)O
- cAMP IC50 (human glucagon receptor [3]): 98.3 nM

B9: [Glu^9]Glucagon(aa4-29)-NH2 (peptide)
peptide: GTFTSEYSKYLDSRRAQDFVQWLMNT-NH2
- cAMP Inhibition IC50 (human glucagon receptor [7]): 128 nM
- cAMP (I/A)50, inhibition index (human glucagon receptor [8]): 1380 ratio

B10: [PLA6, D9]Glucagon(aa6-29)-NH2 (peptide)
peptide: [PhLac]TSDYSKYLDSRRAQDFVQWLMNT-NH2
modifications: N-terminus assumed
SMILES: CSCC[C@H](NC(=O)[C@H](CC(C)C)NC(=O)[C@H](Cc1c[nH]c2ccccc12)NC(=O)[C@H](CCC(N)=O)NC(=O)[C@@H](NC(=O)[C@H](Cc1ccccc1)NC(=O)[C@H](CC(=O)O)NC(=O)[C@H](CCC(N)=O)NC(=O)[C@H](C)NC(=O)[C@H](CCCNC(=N)N)NC(=O)[C@H](CCCNC(=N)N)NC(=O)[C@H](CO)NC(=O)[C@H](CC(=O)O)NC(=O)[C@H](CC(C)C)NC(=O)[C@H](Cc1ccc(O)cc1)NC(=O)[C@H](CCCCN)NC(=O)[C@H](CO)NC(=O)[C@H](Cc1ccc(O)cc1)NC(=O)[C@H](CC(=O)O)NC(=O)[C@H](CO)NC(=O)[C@@H](NC(=O)[C@@H](O)Cc1ccccc1)[C@@H](C)O)C(C)C)C(=O)N[C@@H](CC(N)=O)C(=O)N[C@H](C(N)=O)[C@@H](C)O
- IC50 (nM) (cAMP, inhibit Glucagon) 0.1 nM or 0.2 nM (human glucagon receptor [4]): 6.9 nM

B11: [hCys^9(SO3H)]Glucagon(aa6-29)-NH2 (peptide)
peptide: FTS[Abu(4-SO3H)]YSKYLDSRRAQDFVQWLMNT-NH2
- cAMP IC50 (human glucagon receptor [3]): 133 nM
- cAMP IC50 (human glucagon receptor [9]): 133 nM

B12: [hCys^9(SO3H)]Glucagon(aa2-29)-NH2 (peptide)
peptide: SQGTFTS[Abu(4-SO3H)]YSKYLDSRRAQDFVQWLMNT-NH2
- cAMP IC50 (human glucagon receptor [3]): 147 nM

B13: [PLA^4, E^9]Glucagon(aa4-29)-NH2 (peptide)
peptide: [PhLac]TFTSEYSKYLDSRRAQDFVQWLMNT-NH2
modifications: N-terminus assumed
SMILES: CSCC[C@H](NC(=O)[C@H](CC(C)C)NC(=O)[C@H](Cc1c[nH]c2ccccc12)NC(=O)[C@H](CCC(N)=O)NC(=O)[C@@H](NC(=O)[C@H](Cc1ccccc1)NC(=O)[C@H](CC(=O)O)NC(=O)[C@H](CCC(N)=O)NC(=O)[C@H](C)NC(=O)[C@H](CCCNC(=N)N)NC(=O)[C@H](CCCNC(=N)N)NC(=O)[C@H](CO)NC(=O)[C@H](CC(=O)O)NC(=O)[C@H](CC(C)C)NC(=O)[C@H](Cc1ccc(O)cc1)NC(=O)[C@H](CCCCN)NC(=O)[C@H](CO)NC(=O)[C@H](Cc1ccc(O)cc1)NC(=O)[C@H](CCC(=O)O)NC(=O)[C@H](CO)NC(=O)[C@@H](NC(=O)[C@H](Cc1ccccc1)NC(=O)[C@@H](NC(=O)[C@@H](O)Cc1ccccc1)[C@@H](C)O)[C@@H](C)O)C(C)C)C(=O)N[C@@H](CC(N)=O)C(=O)N[C@H](C(N)=O)[C@@H](C)O
- IC50 (nM) (cAMP, inhibit 0.8 mM Glucagon) (human glucagon receptor [6]): 84.4 nM
